Data from the DeepSol protein solubility set.

test: soluble on expression in E. coli; label from the status in PepcDB or PDB records

For “MPNTTNKDYTKYSQRQLFSFLNSIKTKQKRALEKLKEIQAQKQRIKKALQFKALNLTENGYTIEEEREILARAKDTKNRLCFKSIEDFKKHCENL”, which “soluble on expression in E. coli” value is on record?
Its value is “not soluble”.

Which “soluble on expression in E. coli” value does the source give for “MRARIICGFRLVSETGSGSSSSDLTSASGASQWGNSSRSHWLKRWCASCSSAPEISNWQLSPASVSVPISARALLALPCGQCAGYATQFVMKKYYTAFQRGLPDAHVRRLEHHHHHH” here?
Its value is “not soluble”.

For “MATYLIGDVHGCYDELIALLHKVEFTPGKDTLWLTGDLVARGPGSLDVLRYVKSLGDSVRLVLGNHDLHLLAVFAGISRNKPKDRLTPLLEAPDADELLNWLRRQPLLQIDEEKKLVMAHAGITPQWDLQTAKECARDVEAVLSSDSYPFFLDAMYGDMPNNWSPELRGLGRLRFITNAFTRMRFCFPNGQLDMYSKESPEEAPAPLKPWFAIPGPVAEEYSIAFGHWASLEGKGTPEGIYALDTGCCWGGSLTCLRWEDKQYFVQPSNRHKDLGEGEAVAS”, which “soluble on expression in E. coli” value is on record?
Its value is “soluble”.

For “MGSDKIHHHHHHMNAVTIFVHGFNGNADSTDHLIHGAQKNGWAQKMLVVKIKNDGAMDFDGELDQQVANPMVQVLFENNRAPERRQVSWMHQLLIKLRQSFGVEQYNGVGHSLGSNVLVNLAIKFGKDSRLPALKKLVTIAGPFNGLHGFLSQDTVKDVMTKSWEPNKRTHHFKKLVRNRHLFPKGAEVLNVIGSVDGILNNDVYVAVDSARAVGYLLDGVAAKVSELMVIGPDGYHCELNRSQNVSREINQFLWDEKYIAQDFKLINSYRADKVYQLAPEELNWAN”, which “soluble on expression in E. coli” value is on record?
Its value is “not soluble”.

For “MPKINTSSSGWLADISLFYEKRGTNTKLVHREQVGPLMVQRPFYPETGIAHTYLLHPPGGVVGGDQLNINIHVSPQAHSLLTTPGATKFYRSSGATSSQTQNLTVESDGFLEWLPQENIFFPDSQAQLKTQVELHKNAHFIGWEMNCFGRPVLDEIFENGFVTGRTNIKVDDQLLLSESMYIDSIDEIKHAAGMRHYPMLGNLYIYPASEALEEKLRTLIDENFHEQPELFGSSNPICGITEIDGLLVIRYLGHQTEPMMACFSTLWQHTRQHWLGKLPEVPRIWATLEHHHHHH”, which “soluble on expression in E. coli” value is on record?
The value was “not soluble”.

With “MQVMASPPCTTEELSPPPGGSLVEYSGGSLRVPDNPVVAFIRGDGVGPEVVESALKVVDAAVKKVYGGSRRIVWWELLAGHLAREKCGELLPKATLEGIRLARVALKGPLETPVGTGYRSLNVAIRQALDLYANIRPVRYYGQPAPHKYADRVDMVIFRENTEDVYAGIEWPHDSPEAARIRRFLAEEFGISIREDAGIGVKPISRFATRRLMERALEWALRNGNTVVTIMHKGNIMKYTEGAFMRWAYEVALEKFREHVVTEQEVQEKYGGVRPEGKILVNDRIADNMLQQIITRPWDYQVIVAPNLNGDYISDAASALVGGIGMAAGMNMGDGIAVAEPVHGTAPKYAGKDLINPSAEILSASLLIGEFMGWREVKSIVEYAIRKAVQSKKVTQDLARHMPGVQPLRTSEYTETLIAYIDEADLNEVLAGKRG” as the sequence, how does the “soluble on expression in E. coli” value read?
Its value is “soluble”.

Which “soluble on expression in E. coli” value does the source give for “MSLDSRPAVLEISASIIDISENALEQLGVDWRLHNSRFDLQTGNGTNTMLNNPGSLDSVATTAGAAAAIAATPAGGVLSAVIGGGSRYLMARISALQQTDQARITANPKVATLDNTEAVMDNRQNFYVPVAGYQSADLYAISAGVSLRVLPMVVMDGGTVRIRMNVHIEDGQITSQQVGNLPITSQSEIDTQALINEGDSLLIAGYSVEQQSKSVDAVPGLSKIPLVGALFRTDQTTGKRFQRMFLVTPRVITPEGHHHHHH” here?
The value was “soluble”.

With “MTVDDIMVPRSEIIGIDINDDWKSILRQLSHSPHGRIVLYRDSLDDAISMLRVREAWRLMSEKKEFTKETMLRAADEIYFVPEGTPLSTQLVKFQRNKKKVGLVVNEYGDIQGLVTVEDILEEIVGDFTTSMSPTLAEEVTPQNDGSVIIDGTANVREINKAFNWHLPEDDARTVNGVILEALEEIPVAGTRVRIGEYDIDILDVQDNMIKQVKVFPVKPLRESVAELEHHHHHH” as the sequence, how does the “soluble on expression in E. coli” value read?
Its value is “soluble”.

For “AALPDSVDWREKGCVTEVKYQGSCGASWAFSAVGALEAQLKLKTGKLVSLSAQNLVDCSTEKYGNKGCNGGFMTTAFQYIIDNKGIDSDASYPYKAMDQKCQYDSKYRAATCSKYTELPYGREDVLKEAVANKGPVSVGVDARHPSFFLYRSGVYYEPSCTQNVNHGVLVVGYGDLNGKEYWLVKNSWGHNFGEEGYIRMARNKGNHCGIASFPSYPEILQG”, which “soluble on expression in E. coli” value is on record?
The value was “soluble”.

With “MASFVTSKRDFRARAHSNPLNDAEFLVPEDPLRFDWSPFIPDVGSHPIDYVDLGCGYGGLLCELSIAFPNKYMLGMEIRDRVASYCVTKLEELRRLNSKGYRNIGFIRTNCMKFLPFYFPPSSVEKFFICFPDPHFKKKKHRQRLVSLRFLSEAAYCLRPGGMIYIVTDVEELFAWMTNLFAQHPLFLTMDKELVKQQDVLLPYLLNHTDEAQRMKRRGQDTPYWNVFQRKTVFC” as the sequence, how does the “soluble on expression in E. coli” value read?
Its value is “not soluble”.

For “AHHHHHHGSRGILDDIDKKIIEILQKDGKVPLREISKITGLAESTIHERIKRLRESGVIKKFTAVVNPEALGYNILAFILIKVKAGKYSEVASKLVKYPEIVEVYETTGDYDMVVKIRTKNSEELNNFLDMVGSIEGVEGTHTMIVLKVHKETTELPVK”, which “soluble on expression in E. coli” value is on record?
Its value is “soluble”.

Which “soluble on expression in E. coli” value does the source give for “MSLGNIKTLLENRFKKPTSDKMESLAKKRLEGELSPFLNGFTNPKLSSQEEAKFRQLLEEYSFSNEISKHDLQQLCHLSAQVKQIHHQAVLLHGERIKKVRELLTSYREGAFSAWLLLTYGNRQTPYNFLVYYELFSTLPDSLKLELEKLPRQAVYTLAAREGTQEKKEAIIRNYQGETKGELLEIIRKEFPLLPTDRRHTPLSQKAFTLLAKGTKLLRQCTDVSHEELIALEKLIKKLQKVTTNLLSNTKVSRNDNEIQNSRNEGHHHHHH” here?
Its value is “soluble”.

For “GPGSMSRYSTGIENIPSLFDLASALTGFIADFTQVVFGNTQTSFTAAALEETDRGNYDPVARSWEGTGGLNYRVPLYPIPSERHTRERTRNIKILMDNCRRICVEDELPSTKEELQFWTAYRFMKYQMYLTPTCVIMPPLYVMWRMFHDRIPRPFRGRTIPVTLSLALAEQWADATYPGHQFLSTALRAKTPMGDAARAEWLRLQPIDIPYYIYAAYQFQHFFGNVPKEILFGGDIAGYCS”, which “soluble on expression in E. coli” value is on record?
The value was “not soluble”.

Which “soluble on expression in E. coli” value does the source give for “MPYVERSNIVGLFGGSFNPPHEGHLLVAKTAIRRLRLNQLWWMVTPGNPLKDCTHLPPLEKRMRLSLELIDDPKIRVTGFEQAIGSKVSVETISHILAHYRRVHFVWIMGADSLATIHHWYRWHDIISMLPIAIIDRPLVHMSALSSSMAHIYRSFRLDERESIRLPFMKPPAWIYLHGALSFQSSTNLRLKENAFF” here?
Its value is “not soluble”.

Which “soluble on expression in E. coli” value does the source give for “MKIALSFLFLTSTFSNAGKIGRLQSVAVSGQLNCLGKPAVGVRIDLMESDNNGEETGIIDDNDFMGYTYTDSAGFFNMSGSEVEISGIEPYVNIFHKCNDGLSPCQRQLRVDIPKSATASGPAPNETFSIGTLELSSRKVIGERRSCAYRNLTQTS” here?
The value was “not soluble”.

For “MGHHHHHHSHMSGTEEAILGGRDSHPAAGGGSVLCFGQCQYTAEEYQAIQKALRQRLGPEYISSRMAGGGQKVCYIEGHRVINLANEMFGYNGWAHSITQQNVDFVDLNNGKFYVGVCAFVRVQLKDGSYHEDVGYGVSEGLKSKALSLEKARKEAVTDGLKRALRLPLLGVSGRILYSLFSVHSVMCAGGLPTPTASAQTAPSSPCSSAVLRYAQEFWECTWKLYSGQRLPEITK”, which “soluble on expression in E. coli” value is on record?
Its value is “not soluble”.

For “MEIKPTPSPPEERTIYVANFSEEVDEELLEELFIQAGPVVKVILRDVRDSNAKFALVEFEDELSVLFAIELMNGVRLFNQELQVKPRNGTNQEELYKRKKGEIEERVRSVAAPDRDGRRDSYRDDRNRNRNGNNRDSWQQQQPPRHHRQYDPLPPPPPPPLMGGSGGHWRSGGERGPPQYSTPQMLPHQHFVNQMMQQQINRSAPPYNGRHQNSTPHRHHDRHGYDRSSSRHHRNDDRRRSAHFLDIRKFQAPPTSWAFGNFQCFFWNLFSKITYLQEVGGA”, which “soluble on expression in E. coli” value is on record?
Its value is “not soluble”.

For “MASIELRNVQTELAAKNLQFKVLTEKFLEQRKELFDAKKTDSNVEYVECLSEKLRVATERISDLEKETKEGKQVANEEIGRLEKLLREAQQKRDAKIDESYQTFLRIELLVANLGESTDPENEKRIKNLMPAAKTGIPPEGVLRLTINALDSAARESKKKTMAIESLTKQVDDANKLTEVYMKRLEELEDKHRFEEALTLKIQAMMIETTGQLEAQKKIIADLQKKNDDLMKEEEGEEDYEEEENYEVEEDFEDEEEYDEEGEEEDYE”, which “soluble on expression in E. coli” value is on record?
The value was “not soluble”.

Which “soluble on expression in E. coli” value does the source give for “MAHIVQTHKLTLHDVAIDQALVYSSDSNCAELKRTFQVELAHGYNEVKVQNLPFDLVQDSIRVSGAGEAVIHDVSVKNQEGAEFVIPERVLAIKAIFEEKERAKDKVADSRVAVQKRIEGLDNLITEVAKHGKDGAFHFDGRTIESLNALHGFHQDTTVDLRAQIRTLDQDLRKAEEEYARASQDYDNTGYRWRNSAQYASIIVESEAGGAAQLTITYQVNNVSWTPFYDIRVTAGVEAEMHVTYFGKVRQYSGEDWKTVPLVLSTARPAHGVKQLPKLGALEASIVVPEPECNRGGRGGYGGGYAQDSVVMACAAPMMEMGRSRKSMKMSYAAVKSSNIASEFSIGRPATIDDRTDEYKVNIGQFTLDTKLSNVTVPSRNATAFLVANSVNTSDYPLVAGQASIFLDGAFVNKTEFEDAVVSQKFEVSLGVDPNIRIEYKPVRNYQEQSGTVEKINSQVTEKTTAVTNLRPNSVLLTIREQLPRSTDSRIKVHLNTPEAVEVDEASVEPTVGAAITPEKILDYTVQLAPGQSSTFVVKYTTEHPQAEQIRYEEKF” here?
The value was “not soluble”.

With “MSLEKLLRYLNDNDADKWQKNREKLDDETKAYYAEDLSLMDVLNDLWNGQSEQAATLYFGCYEKAAQNNFPSICEGEKIPLSQIRDKADQSIINLLEASKDKIPFSRALLDSIHATEYPVDSAMLQRLQNIREVALLEGMLKAPTPIIYQTYVKEYPNGKFIAQVNASENVRLYQLVKTAPTPANFKAFFEDPEMQKYYQDRGPRPYLAEVRTLYDDFLFQRIDSLKKEGNATAIRQIIDDYKNTPYLSTGARTHLNDLEYLSEKADFELLKPAIVNSESLGLLQEFLKTHKYKEFRDQAKNLRAPFILQAIVSTPTTVKYYTQGRLIKCCETDSTGNITTSYTYNDKGQLTTTLSVTEKNGQPINEVQTSRLYDPQGHCIFEVKTNPKTKTDFYRRARRIGIDGSIESDSLKYMDGRYTVSSYNKQGLLTETKEYNKNGEMEGYTVNKYDDKGRMTESQHQNMLFVNSPNQILSQKELYEYDKYGYLTRIVYQRIFGNSQKTSGCLTCLYDEYGNRIDGDSYYEYDNTGQWICRTSYDNPQQVERIQYIYKEGHHHHHH” as the sequence, how does the “soluble on expression in E. coli” value read?
Its value is “soluble”.

For “MGSDKIHHHHHHMRKDVLEGVLLHIMNEIHPNFAALAKQYNCDYRTVKRYYEAGLTGDLDKLRERKPSVPPLLHGFEEIIRDKLELNCSAASIFYFLGKKDYKGSYTTIKRYCRKYREEKVQKATIRIETTPGLSAQVDWKENVKMVSRDGEVFYFNIFLYILGYSRMKYLELTFDRTQPTVFQCLVNAFEYCGNGIPQEIWFDNMKTVVDRSKSQFTQTVFNEKFRQFAKDAGFHPIACRPFRPQTKGKVEALARTVERLMVFNYEFTDVQELKQIIYELMQDLNGSVSQAIHNKPTVLLKEELPILAPIHRLELLSYVSRNKRLLRKVSMESMVQYQNAKYSVPVKYIGKEVTLDIRRDNLFVWYGDKCIRTHPISEKALNYQREDSLEILRSDVFKYLEDEELERFVDDNLHAYDDL”, which “soluble on expression in E. coli” value is on record?
Its value is “not soluble”.

For “MSLNNPTPKIDQTNNIVIGQKINPDKMHRAKEFRRQMTPAEKILWQHLRGNRLNGLHFRRQQIIDGFIADFYCHAARLVIEVDGKIHELQAEYDAERDRVLLARGLRLLRVKNEEVVQEIDQVLMLISEVCCEETEGHHHHHH”, which “soluble on expression in E. coli” value is on record?
Its value is “soluble”.
